Patent US20230295336A1 (INHIBRX, published 2023)
Positions count from the first letter of the chain named. Numbers in names are those of the source.

Assays:
[1] = biological target: T1, CD3 on the surface of primary T cells (human, UniProt P07766 23-207); experiment: flow cytometry on isolated primary human T cells
T1 construct: whole, on cells; CD3 is a multimeric complex (ε, γ, δ, ζ chains) with the TCR; In the reporter assays CD3 stood on Jurkat cells; also called CD3ε
Description: (§1) Binding of exemplary multispecific constructs containing an antigen-binding domain directed against B7H3 were assessed for binding to B7H3 positive A375 tumor cells or primary T-cells. The constructs were generated containing antigen-binding domain(s) that were either sdAbs or a FABs, and that were positioned either only N-terminal to the Fc or both N-terminal to the Fc and C-terminal to the anti-CD3 binding domain (see FIGS. 3A and 3C and Table E1.1). Among the various formats of constructs tested included: sdAb-Fc-dsFV-sdAb (cx3072, cx5952) sdAb-Fc-FV (cx6079), sdAb-Fc-dsFV (cs6080, cx6081), MAB-FV (cx5067) and MAB-dsFV (cx6083, cx6084), where the FV represents the anti-CD3 binding domain composed of VH and VL domain pairs and “ds” notes disulfide stabilized via an engineered interdomain disulfide bond.
(§2) Binding was assessed as described above via flow cytometry using a fluorophore-conjugated anti-human Fc secondary antibody. cx3072 bound to A375 cells with high affinity (FIG. 6A) but not to isolated T-cells (FIG. 6B). […] The B7H3-targeting sdAb containing constructs (cx5952, cx6079, cx6080, and cx6081) bound to B7H3 positive cells with similar affinities (depicted in FIG. 6E), with cx5952 displaying higher maximal binding. cx6079, cx6080 and cx6081 contain two identical B7H3-targeting sdAbs, whereas cx5952, and cx3072 contain two distinct B7H3-targeting sdAb that bind different epitopes. The MAB-FV, cx5067, contains two identical B7H3-targeting FAB domains.

B7H3 (CD276) [2] = biological target: T2, B7H3 (CD276) (human, UniProt Q5ZPR3 29-534); experiment: flow cytometry on A375 cells, anti-human Fc secondary
T2 construct: whole, on cells
T2 sequence (looked up): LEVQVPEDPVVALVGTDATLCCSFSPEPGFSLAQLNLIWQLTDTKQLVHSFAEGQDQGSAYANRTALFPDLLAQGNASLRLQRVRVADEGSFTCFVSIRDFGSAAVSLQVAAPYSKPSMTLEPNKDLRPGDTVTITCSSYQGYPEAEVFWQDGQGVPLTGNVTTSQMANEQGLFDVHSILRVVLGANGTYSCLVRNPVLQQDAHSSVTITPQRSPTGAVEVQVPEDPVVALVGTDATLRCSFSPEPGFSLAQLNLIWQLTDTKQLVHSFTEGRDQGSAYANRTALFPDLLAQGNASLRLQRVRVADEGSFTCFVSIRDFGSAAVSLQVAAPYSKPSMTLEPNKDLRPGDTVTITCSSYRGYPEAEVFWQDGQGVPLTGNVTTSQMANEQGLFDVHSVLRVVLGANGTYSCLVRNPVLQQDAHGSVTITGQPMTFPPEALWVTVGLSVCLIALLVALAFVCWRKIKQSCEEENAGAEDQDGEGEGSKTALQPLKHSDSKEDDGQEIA
Description: as §1, §2

B7H3 (CD276) [3] = biological target: T2, B7H3 (CD276); experiment: flow cytometry on A375 cells
Description: as §1
Binding was assessed as described above via flow cytometry using a fluorophore-conjugated anti-human Fc secondary antibody. cx3072 bound to A375 cells with high affinity (FIG. 6A) but not to isolated T-cells (FIG. 6B). […]

T1 sequence (P07766 23-207): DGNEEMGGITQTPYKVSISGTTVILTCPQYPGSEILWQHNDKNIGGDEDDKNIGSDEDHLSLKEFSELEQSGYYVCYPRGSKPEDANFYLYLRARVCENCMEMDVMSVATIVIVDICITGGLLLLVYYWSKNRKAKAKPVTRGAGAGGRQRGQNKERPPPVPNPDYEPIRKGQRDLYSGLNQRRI

B1: cx5067 (bispecific antibody)
chain 1: EVQLVESGGGLVQPGGSLRLSCAASGFTFSSFGMHWVRQAPGKGLEWVAYISSDSSAIYYADTVKGRFTISRDNAKNSLYLQMNSLRDEDTAVYYCGRGRENIYYGSRLDYWGQGTTVTVSSASTKGPSVFPLAPSSKSTSGGTAALGCLVKDYFPEPVTVSWNSGALTSGVHTFPAVLQSSGLYSLSSVVTVPSSSLGTQTYICNVNHKPSNTKVDKKVEPKSCDKTHTCPPCPAPPVAGPSVFLFPPKPKDTLMISRTPEVTCVVVDVKHEDPEVKFNWYVDGVEVHNAKTKPREEEYNSTYRVVSVLTVLHQDWLNGKEYKCKVSNKALPAPIEKTISKAKGQPREPQVYTLPPSREEMTKNQVSLTCDVSGFYPSDIAVEWESDGQPENNYKTTPPVLDSDGSFFLYSKLTVDKSRWEQGDVFSCSVMHEALHNHYTQKSLSLSPGKGGGGSGGGGSGGGGSEVQLVESGGGLVQPGGSLRLSCAASGFTFSTYAMNWVRQAPGKGLEWVGRIRSKYNNYATYYADSVKGRFTISRDDSKNTLYLQMNSLRAEDTAVYYCVRHGNFGDSYVSWFAYWGQGTLVTVSS
chain 2: EVQLVESGGGLVQPGGSLRLSCAASGFTFSSFGMHWVRQAPGKGLEWVAYISSDSSAIYYADTVKGRFTISRDNAKNSLYLQMNSLRDEDTAVYYCGRGRENIYYGSRLDYWGQGTTVTVSSASTKGPSVFPLAPSSKSTSGGTAALGCLVKDYFPEPVTVSWNSGALTSGVHTFPAVLQSSGLYSLSSVVTVPSSSLGTQTYICNVNHKPSNTKVDKKVEPKSCDKTHTCPPCPAPPVAGPSVFLFPPKPKDTLMISRTPEVTCVVVDVKHEDPEVKFNWYVDGVEVHNAKTKPREEQYNSTYRVVSVLTVLHQDWLNGKEYKCKVSNKALPAPIEKTISKAKGQPREPQVYTLPPSREQMTKNQVKLTCLVKGFYPSDIAVEWESNGQPENNYKTTPPVLDSDGSFFLYSKLTVDKSRWQQGNVFSCSVMHEALHNHYTQKSLSLSPGKGGGGSGGGGSGGGGSQAVVTQEPSLTVSPGGTVTLTCGSSTGAVTTSNYANWVQQKPGKSPRGLIGGTNKRAPGVPARFSGSLLGGKAALTISGAQPEDEADYYCALWYSNHWVFGGGTKLTVL
light: DIQLTQSPSFLSASVGDRVTITCKASQNVDTNVAWYQQKPGKAPKALIYSASYRYSGVPSRFSGSGSGTDFTLTISSLQPEDFATYYCQQYNNYPFTFGQGTKLEIKRTVAAPSVFIFPPSDEQLKSGTASVVCLLNNFYPREAKVQWKVDNALQSGNSQESVTEQDSKDSTYSLSSTLTLSKADYEKHKVYACEVTHQGLSSPVTKSFNRGEC
notes: Three polypeptides; two identical B7H3 Fab domains; anti-CD3 Fv not disulfide-stabilized; also called MAB-FV; B7H3-targeted constrained CD3 engaging construct (Fab format)
B1: no binding [1]; binds (B7H3 (CD276) [2]).

B2: cx6084 (bispecific antibody, human IgG1, kappa)
chain 1: B1 chain 1 with S496N, G510C, G515A, S543A, N552S, D572N, S590K, S591P
chain 2: B1 chain 2 with K510Q, S511A, P512F, G568C, T573E, V574I, L575K
light: B1 light
notes: Three polypeptides; B7H3 Fab on both Fc chains; anti-CD3 Fv disulfide-stabilized (VH G44C / VL G100C); also called MAB-dsFV; B7H3-targeted constrained CD3 engaging construct (Fab format)
B2: no binding [1]; binds (B7H3 (CD276) [2]).

B3: cx6083 (bispecific antibody)
chain 1: B1 chain 1 with G510C
chain 2: B1 chain 2 with G568C
light: B1 light
notes: as for B2
B3: no binding [1]; binds (B7H3 (CD276) [2]).

B4: cx6081 (bispecific antibody)
chain 1: EVQLVESGGGEVQPGGSLRLSCAASGFSFSSNVMMWVRQAPGKGLEWVSTIYSSGTGTFYAESVKGRFTISRDNAKNTLYLQMSSLRPEDTAVYYCATSGPVRGWGPRSQGTLVTVKPPGGGGDKTHTCPPCPAPPVAGPSVFLFPPKPKDTLMISRTPEVTCVVVDVKHEDPEVKFNWYVDGVEVHNAKTKPREEEYNSTYRVVSVLTVLHQDWLNGKEYKCKVSNKALPAPIEKTISKAKGQPREPQVYTLPPSREEMTKNQVSLTCDVSGFYPSDIAVEWESDGQPENNYKTTPPVLDSDGSFFLYSKLTVDKSRWEQGDVFSCSVMHEALHNHYTQKSLSLSPGKGGGGSGGGGSGGGGSEVQLVESGGGLVQPGGSLRLSCAASGFTFNTYAMNWVRQAPGKCLEWVARIRSKYNNYATYYADSVKGRFTISRDDAKNTLYLQMSSLRAEDTAVYYCVRHGNFGNSYVSWFAYWGQGTLVTVKP
chain 2: EVQLVESGGGEVQPGGSLRLSCAASGFSFSSNVMMWVRQAPGKGLEWVSTIYSSGTGTFYAESVKGRFTISRDNAKNTLYLQMSSLRPEDTAVYYCATSGPVRGWGPRSQGTLVTVKPPGGGGDKTHTCPPCPAPPVAGPSVFLFPPKPKDTLMISRTPEVTCVVVDVKHEDPEVKFNWYVDGVEVHNAKTKPREEQYNSTYRVVSVLTVLHQDWLNGKEYKCKVSNKALPAPIEKTISKAKGQPREPQVYTLPPSREQMTKNQVKLTCLVKGFYPSDIAVEWESNGQPENNYKTTPPVLDSDGSFFLYSKLTVDKSRWQQGNVFSCSVMHEALHNHYTQKSLSLSPGKGGGGSGGGGSGGGGSQAVVTQEPSLTVSPGGTVTLTCGSSTGAVTTSNYANWVQQKPGQAFRGLIGGTNKRAPGVPARFSGSLLGGKAALTISGAQPEDEADYYCALWYSNHWVFGCGTKLEIK
notes: Heterodimer of chain 1 and chain 2; anti-CD3 Fv disulfide-stabilized (VH G44C / VL G100C); two identical B7H3 sdAbs, both N-terminal to the Fc; also called cs6081; B7H3-targeting constrained CD3 engaging construct
B4: no binding [1]; binds (B7H3 (CD276) [2]).

B5: cx6080 (bispecific antibody)
chain 1: B4 chain 1 with N394S, A413G, A441S, S450N, N470D, K488S, P489S
chain 2: B4 chain 2 with Q408K, A409S, F410P, E471T, I472V, K473L
notes: Heterodimer of chain 1 and chain 2; anti-CD3 Fv disulfide-stabilized (VH G44C / VL G100C); two identical B7H3 sdAbs, both N-terminal to the Fc; also called cs6080; B7H3-targeting constrained CD3 engaging construct
B5: no binding [1]; binds (B7H3 (CD276) [3]).
